Results reported in paper PMC6744678.

Biological target: T1, taxol-stabilized microtubules, P02550
T1 chain: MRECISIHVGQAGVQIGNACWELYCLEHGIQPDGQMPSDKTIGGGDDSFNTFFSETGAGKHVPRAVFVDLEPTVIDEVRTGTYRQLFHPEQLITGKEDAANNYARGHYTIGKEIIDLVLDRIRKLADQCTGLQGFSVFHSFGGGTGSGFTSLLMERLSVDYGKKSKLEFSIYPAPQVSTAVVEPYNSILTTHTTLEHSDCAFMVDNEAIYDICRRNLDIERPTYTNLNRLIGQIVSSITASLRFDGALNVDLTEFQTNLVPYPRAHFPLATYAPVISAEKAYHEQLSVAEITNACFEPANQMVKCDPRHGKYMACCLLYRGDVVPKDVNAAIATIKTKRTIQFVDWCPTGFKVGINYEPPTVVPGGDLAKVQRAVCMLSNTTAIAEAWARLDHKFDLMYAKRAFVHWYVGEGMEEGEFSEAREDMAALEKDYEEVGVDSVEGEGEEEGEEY
Experiment: GST pull-down of microtubules, quantified tubulin band intensity
Settings: chain shown with the change; BRB80 buffer at room temperature; n=3; parent: est. 27; read off a plot

B1: GST-tagged full-length (1-314 aa) CCDC74B M67N; L68N; A69N; L71N; L230N; L233N; L234N (protein)
chain: MSGAGVAAGTRPPSSPTPGSRRRRQRPSVGVQSLRPQSPQLRQSDPQKRNLDLEKSLQFLQQQHSENNNKNHEEIEHLKRENKDLRYKLIMNQTSQKKDSLSTSSFQSVKSISNSGKARPQPGSFNKQDSKADVPQKADLEEEPLLHNSKLDKVPGVQGQARKEKAEASNAGAACMGNSQHQGRQMGAAAHPPMILPLPLRKPTTLRQCEVLIRELWNTNLLQTQELQHNKSNNEGSQRPQAVPEEASFPRDQEATHFPKVSTKSLSKKCLLLSPPVAERAILPALKQTPKNNFAERQKRLQAMQKRRLHRSVL
B1 gave a response (relative intensity (GST = 1.0)) of 25.
